Reference: patent publication US20180177842A1 (CANIMGUIDE THERAPEUTICS, published 2018)
Ends that are not written are not given here.

T1: P3028 (VFDEFKPLVEEPQNLIK, SEQ ID NO: 185), His-tagged (human)
T1 construct: Synthetic fragment of human serum albumin (positions 397-413); used in solution as His-tagged peptide PGE73; also called PGE73; not shown: His-tag
T1 peptide: VFDEFKPLVEEPQNLIK

T2: His-tagged P3028 (human, also: His tag, length and end not given here)
T2 construct: in solution at 0.5 ug/mL, detected with mouse anti-His antibody and rabbit anti-mouse peroxidase (rampo); also called PGE73; His-tag-P3028; not shown: His tag
T2 peptide: VFDEFKPLVEEPQNLIK

B1: KKLGTFFVKLSLFTER (SEQ ID NO: 515) (peptide)
peptide: KKLGTFFVKLSLFTER
B2: KKSDTFFVKLSLFTER (SEQ ID NO: 295) (peptide)
peptide: KKSDTFFVKLSLFTER
B3: KNLDTFFVKLSLFTER (SEQ ID NO: 402) (peptide)
peptide: KNLDTFFVKLSLFTER
B4: KPLDTFFVKLSLFTER (SEQ ID NO: 405) (peptide)
peptide: KPLDTFFVKLSLFTER
B5: KYLDTFFVKLSLFTER (SEQ ID NO: 494) (peptide)
peptide: KYLDTFFVKLSLFTER
B6: WKLDTFFVKLSLFTER (SEQ ID NO: 507) (peptide)
peptide: WKLDTFFVKLSLFTER
B7: MKLDTFFVKLSLFTER (SEQ ID NO: 275) (peptide)
peptide: MKLDTFFVKLSLFTER
B8: VKLDTFFVKLSLFTER (SEQ ID NO: 281) (peptide)
peptide: VKLDTFFVKLSLFTER
B9: KKLITFFVKLSLFTER (SEQ ID NO: 300) (peptide)
peptide: KKLITFFVKLSLFTER
B10: KKNDTFFVKLSLFTER (SEQ ID NO: 292) (peptide)
peptide: KKNDTFFVKLSLFTER
B11: SKLDTFFVKLSLFTER (SEQ ID NO: 453) (peptide)
peptide: SKLDTFFVKLSLFTER
B12: KKLRTFFVKLSLFTER (SEQ ID NO: 480) (peptide)
peptide: KKLRTFFVKLSLFTER
B13: KKLQTFFVKLSLFTER (SEQ ID NO: 448) (peptide)
peptide: KKLQTFFVKLSLFTER
B14: KKRDTFFVKLSLFTER (SEQ ID NO: 294) (peptide)
peptide: KKRDTFFVKLSLFTER
B15: KKQDTFFVKLSLFTER (SEQ ID NO: 293) (peptide)
peptide: KKQDTFFVKLSLFTER
B16: KVLDTFFVKLSLFTER (SEQ ID NO: 481) (peptide)
peptide: KVLDTFFVKLSLFTER
B17: KKLLTFFVKLSLFTER (SEQ ID NO: 491) (peptide)
peptide: KKLLTFFVKLSLFTER
B18: P27 (KKLDTFFKKLSLFTER, SEQ ID NO: 264) (peptide)
peptide: KKLDTFFKKLSLFTER
notes: also called SCF 27; SCF27
B19: LKLDTFFVKLSLFTER (SEQ ID NO: 274) (peptide)
peptide: LKLDTFFVKLSLFTER
B20: KTLDTFFVKLSLFTER (SEQ ID NO: 468) (peptide)
peptide: KTLDTFFVKLSLFTER
B21: KLLDTFFVKLSLFTER (SEQ ID NO: 454) (peptide)
peptide: KLLDTFFVKLSLFTER
B22: KKVDTFFVKLSLFTER (SEQ ID NO: 297) (peptide)
peptide: KKVDTFFVKLSLFTER
B23: TKLDTFFVKLSLFTER (SEQ ID NO: 280) (peptide)
peptide: TKLDTFFVKLSLFTER
B24: PKLDTFFVKLSLFTER (SEQ ID NO: 277) (peptide)
peptide: PKLDTFFVKLSLFTER
B25: KKLSTFFVKLSLFTER (SEQ ID NO: 451) (peptide)
peptide: KKLSTFFVKLSLFTER
B26: NKLDTFFVKLSLFTER (SEQ ID NO: 276) (peptide)
peptide: NKLDTFFVKLSLFTER
B27: QKLDTFFVKLSLFTER (SEQ ID NO: 278) (peptide)
peptide: QKLDTFFVKLSLFTER
B28: KKLTTFFVKLSLFTER (SEQ ID NO: 413) (peptide)
peptide: KKLTTFFVKLSLFTER
B29: KKLWTFFVKLSLFTER (SEQ ID NO: 302) (peptide)
peptide: KKLWTFFVKLSLFTER
B30: KSLDTFFVKLSLFTER (SEQ ID NO: 510) (peptide)
peptide: KSLDTFFVKLSLFTER
notes: also called 30684
B31: RKLDTFFVKLSLFTER (SEQ ID NO: 279) (peptide)
peptide: RKLDTFFVKLSLFTER
B32: KKLMTFFVKLSLFTER (SEQ ID NO: 423) (peptide)
peptide: KKLMTFFVKLSLFTER
B33: KKWDTFFVKLSLFTER (SEQ ID NO: 458) (peptide)
peptide: KKWDTFFVKLSLFTER
B34: KKLPTFFVKLSLFTER (SEQ ID NO: 435) (peptide)
peptide: KKLPTFFVKLSLFTER
B35: KKLNTFFVKLSLFTER (SEQ ID NO: 498) (peptide)
peptide: KKLNTFFVKLSLFTER
B36: KKLYTFFVKLSLFTER (SEQ ID NO: 303) (peptide)
peptide: KKLYTFFVKLSLFTER
B37: KMLDTFFVKLSLFTER (SEQ ID NO: 417) (peptide)
peptide: KMLDTFFVKLSLFTER
B38: KWLDTFFVKLSLFTER (SEQ ID NO: 490) (peptide)
peptide: KWLDTFFVKLSLFTER
B39: KKLKTFFVKLSLFTER (SEQ ID NO: 512) (peptide)
peptide: KKLKTFFVKLSLFTER
B40: KKYDTFFVKLSLFTER (SEQ ID NO: 452) (peptide)
peptide: KKYDTFFVKLSLFTER
B41: KRLDTFFVKLSLFTER (SEQ ID NO: 407) (peptide)
peptide: KRLDTFFVKLSLFTER
B42: KKMDTFFVKLSLFTER (SEQ ID NO: 291) (peptide)
peptide: KKMDTFFVKLSLFTER
B43: YKLDTFFVKLSLFTER (SEQ ID NO: 483) (peptide)
peptide: YKLDTFFVKLSLFTER
B44: KKTDTFFVKLSLFTER (SEQ ID NO: 296) (peptide)
peptide: KKTDTFFVKLSLFTER
B45: KKLHTFFVKLSLFTER (SEQ ID NO: 479) (peptide)
peptide: KKLHTFFVKLSLFTER
B46: KKPDTFFVKLSLFTER (SEQ ID NO: 436) (peptide)
peptide: KKPDTFFVKLSLFTER
B47: KQLDTFFVKLSLFTER (SEQ ID NO: 440) (peptide)
peptide: KQLDTFFVKLSLFTER
B48: SEQ ID NO 268 (peptide)
peptide: AKLDTFFVKLSLFTER
B49: SEQ ID NO 284 (peptide)
peptide: KKDDTFFVKLSLFTER
B50: SEQ ID NO 271 (peptide)
peptide: GKLDTFFVKLSLFTER
B51: SEQ ID NO 273 (peptide)
peptide: IKLDTFFVKLSLFTER
B52: SEQ ID NO 285 (peptide)
peptide: KKEDTFFVKLSLFTER
B53: SEQ ID NO 280 (peptide)
peptide: TKLDTFFVKLSLFTER
B54: SEQ ID NO 289 (peptide)
peptide: KKIDTFFVKLSLFTER
B55: SEQ ID NO 282 (peptide)
peptide: KKADTFFVKLSLFTER
B56: SEQ ID NO 279 (peptide)
peptide: RKLDTFFVKLSLFTER
B57: SEQ ID NO 272 (peptide)
peptide: HKLDTFFVKLSLFTER
B58: SEQ ID NO 270 (peptide)
peptide: EKLDTFFVKLSLFTER
B59: SEQ ID NO 281 (peptide)
peptide: VKLDTFFVKLSLFTER
B60: SEQ ID NO 274 (peptide)
peptide: LKLDTFFVKLSLFTER
B61: SEQ ID NO 269 (peptide)
peptide: DKLDTFFVKLSLFTER
B62: SEQ ID NO 287 (peptide)
peptide: KKGDTFFVKLSLFTER
B63: SEQ ID NO 277 (peptide)
peptide: PKLDTFFVKLSLFTER
B64: SEQ ID NO 278 (peptide)
peptide: QKLDTFFVKLSLFTER
B65: SEQ ID NO 276 (peptide)
peptide: NKLDTFFVKLSLFTER
B66: SEQ ID NO 275 (peptide)
peptide: MKLDTFFVKLSLFTER
B67: SEQ ID NO 283 (peptide)
peptide: KKCDTFFVKLSLFTER
B68: SEQ ID NO 286 (peptide)
peptide: KKFDTFFVKLSLFTER
B69: SEQ ID NO 288 (peptide)
peptide: KKHDTFFVKLSLFTER

Biological target: T1, P3028 (VFDEFKPLVEEPQNLIK, SEQ ID NO: …)
Assay: PEPSCAN ELISA; peptide on chip, His-P3028 added;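 note: peroxidase color development with ABTS and H2O2 substrate, OD405 imaged by CCD camera with image processing and taken as raw values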
Method: (§1) After washing, the peroxidase substrate 2,2′-azine-di-3-ethylbenzthiazoline sulfonate (ABTS) and 2 μL of 3% H2O2 were added. The binding capacity of the mAb was measured as a color development at 405 nm (optical density, OD405). The color development was quantified with a charge-coupled device (CCD)—camera and an image processing system.
(§2) The OD405-values obtained by a CCD-camera was considered as raw data values (“rampo values,” “rampo units,” or “rampo scores”). […] First the CCD-camera made a picture of the card before peroxidase coloring and then again a picture after the peroxidase coloring. […] These values were copied into an excel file and labeled as a raw data file. […] Sometimes a well can contain an air-bubble resulting in a false-positive value. If manual inspection of the cards detect an air-bubble the value are set to 0 for well.
With B1 the “RAMPO Score” value was 264 rampo units.
In the case of B2, the “RAMPO Score” value is reported as 393 rampo units.
B3 was tested, and the “RAMPO Score” value was 432 rampo units.
For B4, the “RAMPO Score” value was 425 rampo units.
B5 was tested, and the “RAMPO Score” value was 301 rampo units.
With B6 the “RAMPO Score” value was 284 rampo units.
In the case of B7, the “RAMPO Score” value is reported as 457 rampo units.
For B8, the “RAMPO Score” value was 442 rampo units.
For B9, the “RAMPO Score” value was 430 rampo units.
B10 was tested, and the “RAMPO Score” value was 374 rampo units.
With B11 the “RAMPO Score” value was 344 rampo units.
With B12 the “RAMPO Score” value was 317 rampo units.
In the case of B13, the “RAMPO Score” value is reported as 345 rampo units.
In the case of B14, the “RAMPO Score” value is reported as 370 rampo units.
In the case of B15, the “RAMPO Score” value is reported as 473 rampo units.
B16 was tested, and the “RAMPO Score” value was 317 rampo units.
B17 was tested, and the “RAMPO Score” value was 303 rampo units.
In the case of B18, the “RAMPO Score” value is reported as 253 rampo units.
With B19 the “RAMPO Score” value was 449 rampo units.
With B20 the “RAMPO Score” value was 331 rampo units.
In the case of B21, the “RAMPO Score” value is reported as 343 rampo units.
For B22, the “RAMPO Score” value was 377 rampo units.
B23 was tested, and the “RAMPO Score” value was 493 rampo units.
In the case of B24, the “RAMPO Score” value is reported as 387 rampo units.
In the case of B25, the “RAMPO Score” value is reported as 344 rampo units.
In the case of B26, the “RAMPO Score” value is reported as 445 rampo units.
For B27, the “RAMPO Score” value was 455 rampo units.
For B28, the “RAMPO Score” value was 405 rampo units.
B29 was tested, and the “RAMPO Score” value was 443 rampo units.
With B30 the “RAMPO Score” value was 281 rampo units.
B31 was tested, and the “RAMPO Score” value was 523 rampo units.
With B32 the “RAMPO Score” value was 384 rampo units.
For B33, the “RAMPO Score” value was 341 rampo units.
For B34, the “RAMPO Score” value was 364 rampo units.
In the case of B35, the “RAMPO Score” value is reported as 296 rampo units.
With B36 the “RAMPO Score” value was 422 rampo units.
B37 was tested, and the “RAMPO Score” value was 400 rampo units.
In the case of B38, the “RAMPO Score” value is reported as 304 rampo units.
For B39, the “RAMPO Score” value was 274 rampo units.
B40 was tested, and the “RAMPO Score” value was 344 rampo units.
For B41, the “RAMPO Score” value was 417 rampo units.
B42 was tested, and the “RAMPO Score” value was 460 rampo units.
B43 was tested, and the “RAMPO Score” value was 315 rampo units.
B44 was tested, and the “RAMPO Score” value was 451 rampo units.
For B45, the “RAMPO Score” value was 317 rampo units.
For B46, the “RAMPO Score” value was 361 rampo units.
In the case of B47, the “RAMPO Score” value is reported as 350 rampo units.

Biological target: T2, His-tagged P3028
Assay: PEPSCAN ELISA, peptide on chip;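 note: binding detected by peroxidase ELISA with ABTS, OD405 colour imaged by CCD camera before and after staining, raw OD405 reported as rampo units, air-bubble wells scored 0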
Method: as §1, §2
In the case of B48, the “RAMPO Score” value is reported as 466 rampo units.
With B49 the “RAMPO Score” value was 492 rampo units.
With B50 the “RAMPO Score” value was 367 rampo units.
In the case of B51, the “RAMPO Score” value is reported as 483 rampo units.
With B52 the “RAMPO Score” value was 528 rampo units.
B53 was tested, and the “RAMPO Score” value was 493 rampo units.
In the case of B54, the “RAMPO Score” value is reported as 454 rampo units.
B55 was tested, and the “RAMPO Score” value was 427 rampo units.
For B56, the “RAMPO Score” value was 523 rampo units.
With B57 the “RAMPO Score” value was 428 rampo units.
B58 was tested, and the “RAMPO Score” value was 396 rampo units.
B59 was tested, and the “RAMPO Score” value was 442 rampo units.
B60 was tested, and the “RAMPO Score” value was 449 rampo units.
For B61, the “RAMPO Score” value was 373 rampo units.
In the case of B62, the “RAMPO Score” value is reported as 563 rampo units.
With B63 the “RAMPO Score” value was 387 rampo units.
B64 was tested, and the “RAMPO Score” value was 455 rampo units.
In the case of B65, the “RAMPO Score” value is reported as 445 rampo units.
B66 was tested, and the “RAMPO Score” value was 457 rampo units.
In the case of B67, the “RAMPO Score” value is reported as 432 rampo units.
With B68 the “RAMPO Score” value was 393 rampo units.
In the case of B69, the “RAMPO Score” value is reported as 477 rampo units.
